Publication PMC8746653, “Biochemical and Structural Analysis of a Glucose-Tolerant β-Glucosidase from the Hemicellulose-Degrading Thermoanaerobacterium saccharolyticum” (Molecules, 2022)

How the values were obtained:
TsaBgl [1] = target: T1, TsaBgl (Thermoanaerobacterium saccharolyticum, UniProt I3VXG7); assay: pNPG hydrolysis, pNP release at […] nm, inhibitor titration; type: biochemical; conditions: read-out: concentration that reduced the enzyme activity by half
T1 construct: gene Tsac_2208

TsaBgl [2] = target: T1, TsaBgl; assay: X-ray crystal structure, […] Å; type: binding; conditions: Tris from buffer bound at active site, contacts Glu163 and Glu351; crystallised in 0.1 M Tris-HCl pH 7.0
purified protein = substrate: O=[N+]([O-])c1ccc(O[C@@H]2O[C@H](CO)[C@@H](O)[C@H](O)[C@H]2O)cc1; assay: purified protein; conditions: 100 mM sodium phosphate pH 6.0, 55 °C, 0-10 mM pNPG

Molecule	IC50 (TsaBgl [1]) [mM]	X-ray crystal structure, 1.70 Å (TsaBgl [2])	Km (purified protein) [µM]	kcat (purified protein) [s⁻¹]	kcat/Km (purified protein) [M⁻¹ s⁻¹]
NC(CO)(CO)CO [Tris]	~10	one Tris molecule was bound to the active site	–	–	–
TsaBgl (Thermoanaerobacterium saccharolyticum JW/SL-YS485) (protein) MLDFSKDFLFGVATASYQVEGAYNEDGRTMSIWDTFSRQDGKVYKSHNGDVACDHYHLYKDDVKMMKDLGIEAYRFSIAWPRIFPAKGQYNPKGMDFYKRLTDELLKNDIKPFATIYHWDLPQWADDLGGWLNREIVEWYGEYAEKLFSELGGYIKNWITLNEPWCSSFLSYFIGEHAPGHKDLGEALLVSHNLLLSHGKAVEIFRGLNLDDSKIGITLNLNEVFPASDSDDDKVAAQIADGFQNRWFLDPLFKGKYPQDMVEYFGKYAKVDFINDEDLKLISQKLDFLGVNYYTRAVVQKGNDGLLDAVQIDPGNERTEMGWEIYPESLYNILMRLKREYTYDMPLYITENGAAFNDVVEDDGRVHDEKRVEFLKQHFKEAKRFLNDGGNLKGYFVWSLMDNFEWAHGYSKRFGIVYVDYETEKRILKDSALWYKDLISTRTI	–	–	360 ± 20	18.6	51000
